Source: US6458926

Target: GAL-RXR (yeast GAL4 DBD linked to the human RXRα LBD) (yeast; human) (UniProt P04386)
Assay: cell-based or functional assay

T3R LBD (SV40 TAg NLS fused upstream of human T3Rβ LBD), sequence (P10828 other isoform, or with tags, fused parts or gaps): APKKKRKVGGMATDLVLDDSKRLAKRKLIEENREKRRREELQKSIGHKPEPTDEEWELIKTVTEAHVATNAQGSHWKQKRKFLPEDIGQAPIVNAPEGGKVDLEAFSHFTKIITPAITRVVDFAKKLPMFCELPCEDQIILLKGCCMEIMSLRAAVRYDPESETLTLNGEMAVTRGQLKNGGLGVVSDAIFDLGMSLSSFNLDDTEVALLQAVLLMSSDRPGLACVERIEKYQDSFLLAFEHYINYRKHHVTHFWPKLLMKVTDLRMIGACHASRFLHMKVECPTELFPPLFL

T3R LBD (SV40 TAg NLS fused upstream of human T3Rβ LBD) (from UniProt P10828 173-456)
fold response to LG69: 57 fold
